According to the supplement of paper PMC9876800:

System: peptide library, one residue held at a place counted from the S/T acceptor
Assay: relative phosphorylation of the sub-library (ratio to the mean residue at this position); higher = residue favoured
Conditions: human
In short: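 Relative sub-library phosphorylation is the ratio of each sub-library's signal to the mean residue at that position. The signal came from phosphorimaging of spots on streptavidin membranes, quantified by densitometry, after purified recombinant kinases reacted with biotinylated degenerate peptide sub-libraries in 384-well plates. Reactions held 50 μM peptide and 50 μM ATP spiked with γ-32P-ATP for 90 min under kinase-specific conditions.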

RIPK2, construct: aa2-317, sequence (O43353 2-317, looked up): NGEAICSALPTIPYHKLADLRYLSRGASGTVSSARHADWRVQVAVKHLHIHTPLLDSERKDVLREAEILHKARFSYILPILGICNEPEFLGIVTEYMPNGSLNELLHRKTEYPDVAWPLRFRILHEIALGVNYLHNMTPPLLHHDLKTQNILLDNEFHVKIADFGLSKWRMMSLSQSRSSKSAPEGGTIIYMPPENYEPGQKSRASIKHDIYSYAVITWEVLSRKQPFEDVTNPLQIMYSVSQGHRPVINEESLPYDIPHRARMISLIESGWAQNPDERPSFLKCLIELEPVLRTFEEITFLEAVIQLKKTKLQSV
PLK4, construct: aa1-836, sequence (O00444 1-836, looked up): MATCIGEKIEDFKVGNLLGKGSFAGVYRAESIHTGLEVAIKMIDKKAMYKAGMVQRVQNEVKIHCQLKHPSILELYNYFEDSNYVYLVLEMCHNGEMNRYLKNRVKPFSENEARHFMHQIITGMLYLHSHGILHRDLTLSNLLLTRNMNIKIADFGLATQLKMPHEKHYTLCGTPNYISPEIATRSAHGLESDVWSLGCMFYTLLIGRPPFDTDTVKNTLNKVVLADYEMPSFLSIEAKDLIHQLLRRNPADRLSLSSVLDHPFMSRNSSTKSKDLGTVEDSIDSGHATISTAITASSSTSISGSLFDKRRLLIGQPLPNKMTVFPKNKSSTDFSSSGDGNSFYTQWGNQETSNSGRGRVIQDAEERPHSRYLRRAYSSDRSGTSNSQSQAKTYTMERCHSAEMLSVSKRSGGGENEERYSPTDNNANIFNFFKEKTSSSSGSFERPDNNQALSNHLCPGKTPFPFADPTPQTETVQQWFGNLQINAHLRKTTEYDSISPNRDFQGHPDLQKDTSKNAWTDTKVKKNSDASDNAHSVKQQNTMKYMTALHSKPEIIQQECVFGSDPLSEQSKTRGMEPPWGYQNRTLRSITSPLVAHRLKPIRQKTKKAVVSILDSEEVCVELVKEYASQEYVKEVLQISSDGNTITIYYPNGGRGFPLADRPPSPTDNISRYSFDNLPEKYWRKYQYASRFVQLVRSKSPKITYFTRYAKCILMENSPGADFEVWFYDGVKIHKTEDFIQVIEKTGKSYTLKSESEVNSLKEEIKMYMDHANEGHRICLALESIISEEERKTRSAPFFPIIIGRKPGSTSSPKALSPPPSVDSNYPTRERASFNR
PRKACG, construct: Full length, sequence (P22612 whole entry, looked up): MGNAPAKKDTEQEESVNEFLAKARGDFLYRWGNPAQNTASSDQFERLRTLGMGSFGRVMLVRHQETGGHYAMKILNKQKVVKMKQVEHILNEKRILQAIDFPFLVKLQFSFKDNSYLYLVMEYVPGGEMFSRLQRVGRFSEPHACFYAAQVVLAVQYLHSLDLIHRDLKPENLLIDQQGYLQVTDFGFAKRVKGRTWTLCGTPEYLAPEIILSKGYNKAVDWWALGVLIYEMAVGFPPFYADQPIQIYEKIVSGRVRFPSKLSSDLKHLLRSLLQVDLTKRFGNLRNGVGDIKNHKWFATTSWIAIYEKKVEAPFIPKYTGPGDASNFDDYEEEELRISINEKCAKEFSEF

PLK4, construct: aa1-836 (from UniProt O00444)
relative phosphorylation
Conditions	at +1	at +2	at +3	at +4	at -1	at -2	at -3	at -4	at -5
A fixed	0.459	0.471	0.813	1.24	0.953	0.708	1.03	1.24	1.26
D fixed	0.141	0.195	0.641	0.629	0.452	2.77	0.913	1.08	0.912
E fixed	0.135	0.148	0.874	0.705	0.493	1.26	0.791	0.991	0.918
F fixed	3.31	2.2	1.18	0.861	0.621	0.829	0.569	0.691	0.873
G fixed	0.61	0.24	0.821	1.4	2.08	1.35	1.25	1.42	1.43
H fixed	0.675	1.6	1.03	1.09	0.988	1.15	0.848	1.14	1.21
I fixed	1.67	1.39	1.4	1.01	0.347	0.395	0.478	0.625	0.582
K fixed	0.413	0.219	0.704	1.05	2.14	0.712	1.07	1.04	1.28
L fixed	1.62	1.35	1.33	1.01	0.858	0.398	0.715	0.748	0.771
M fixed	2.44	0.906	1.2	1.05	1.33	0.676	0.867	0.893	0.728
N fixed	0.409	0.294	0.58	0.829	1.09	2.41	1.97	1.54	1.28
P fixed	0.168	0.141	0.381	1.55	0.331	0.486	1.98	1.25	0.926
Q fixed	0.58	0.252	0.785	1.01	1.27	0.778	0.96	0.956	0.825
R fixed	0.44	0.216	0.609	0.711	1.85	0.75	1.14	0.944	1.07
V fixed	1.08	1.12	1.36	0.969	0.571	0.44	1.08	0.776	0.87
W fixed	1.47	2.81	1.84	0.991	0.672	1	0.717	0.917	1.21
Y fixed	1.38	3.44	1.44	0.889	0.955	0.881	0.627	0.746	0.848
pThr fixed	0.54	0.446	0.572	0.592	0.571	0.796	1.08	0.931	0.889
pTyr fixed	0.526	1.37	0.734	0.52	1.06	0.753	0.841	0.86	0.806

PRKACG, construct: Full length (from UniProt P22612)
relative phosphorylation
Conditions	at +1	at +2	at +3	at +4	at -1	at -2	at -3	at -4	at -5
A fixed	0.696	1.22	0.896	0.974	0.795	0.472	0.682	0.944	1.09
D fixed	0.44	0.969	0.917	0.885	0.473	0.197	0.322	0.595	0.569
E fixed	0.469	0.676	0.951	0.985	0.452	0.215	0.344	0.665	0.577
F fixed	1.58	1.13	1.06	0.761	0.709	0.578	0.441	0.653	0.754
G fixed	0.804	1.08	1.26	1.17	1.21	0.565	0.846	1.09	1.09
H fixed	1.05	1.45	1.39	1.14	1.11	1.08	1.35	1.3	1.42
I fixed	1.57	0.902	0.819	1.16	0.343	0.227	0.289	0.564	0.63
K fixed	1.08	0.812	1.08	0.978	2.41	4.09	2.19	1.85	1.97
L fixed	1.32	0.961	0.87	0.866	0.746	0.324	0.297	0.582	0.627
M fixed	1.51	0.926	0.805	0.879	0.959	0.414	0.49	0.873	0.713
N fixed	0.851	0.942	0.921	1.04	1.15	0.689	0.776	1.01	0.965
P fixed	0.295	0.941	1.05	1.28	1.16	0.445	1.03	1.06	0.86
Q fixed	1.05	0.975	0.913	0.937	1.1	0.532	0.789	1.04	0.91
R fixed	1.18	0.87	1.11	0.886	1.97	6.02	5.51	2.44	2.36
V fixed	1.18	1.02	0.871	0.991	0.563	0.217	0.315	0.678	0.777
W fixed	0.963	0.99	1.04	1.1	0.768	0.462	0.615	0.821	0.856
Y fixed	0.969	1.14	1.05	0.979	1.09	0.478	0.716	0.847	0.824
pThr fixed	0.817	0.71	0.919	1.52	0.455	0.542	0.792	0.954	0.769
pTyr fixed	0.939	1.03	1.26	1.29	0.59	0.455	0.614	0.655	0.751

RAF1, construct: aa306-648 (from UniProt P04049)
relative phosphorylation
Conditions	at +1	at +2	at +3	at +4	at -1	at -2	at -3	at -4	at -5
A fixed	0.533	0.747	0.856	0.786	1.02	0.816	0.961	0.949	1.05
D fixed	0.619	0.926	0.751	0.848	1.47	0.702	0.845	1.36	1.19
E fixed	0.992	0.886	0.697	0.864	0.969	0.718	0.898	1.24	1.29
F fixed	1.25	0.618	1.36	1.23	0.587	1.25	0.8	0.698	0.914
G fixed	0.719	1.13	1.05	0.823	1.07	0.675	1.06	1.09	0.997
H fixed	0.672	1.08	1.06	1.13	1.52	1.29	1.08	1.13	1.18
I fixed	1.66	1.03	0.787	0.958	0.647	1.27	0.755	0.65	0.731
K fixed	0.544	1.15	0.73	0.985	1.14	0.9	1.36	1.11	1.35
L fixed	2.37	1	1.19	1.05	0.852	0.939	1.22	0.793	0.848
M fixed	1.78	0.846	0.963	0.966	1.09	1.02	1.07	0.835	0.788
N fixed	0.692	1.32	0.999	1.08	1.29	0.784	0.832	1.27	1.13
P fixed	0.281	1.23	0.912	0.983	0.735	1.1	0.797	0.772	1.03
Q fixed	0.762	1.22	0.892	1.06	0.93	0.846	0.996	0.878	0.86
R fixed	0.667	1.49	0.776	0.944	1.39	1.37	1.83	0.911	1.09
V fixed	0.938	1.12	0.81	0.793	0.59	1.14	0.661	0.616	0.681
W fixed	1.44	0.58	1.61	1.3	0.805	0.932	0.94	1.91	1.02
Y fixed	1.08	0.631	1.56	1.19	0.891	1.26	0.89	0.791	0.855
pThr fixed	1.05	1.62	0.758	0.819	0.77	1.06	1.1	1.24	0.992
pTyr fixed	0.626	0.898	0.911	0.692	1.61	1.72	1.07	0.994	0.98

RIPK2, construct: aa2-317 (from UniProt O43353)
relative phosphorylation
Conditions	at +1	at +2	at +3	at +4	at -1	at -2	at -3	at -4	at -5
A fixed	0.347	0.349	0.463	0.669	0.597	0.592	0.889	0.727	1.01
D fixed	0.267	0.348	0.308	0.731	1.09	0.599	0.412	0.738	0.674
E fixed	0.265	0.481	0.291	0.563	0.726	0.431	0.409	0.655	0.669
F fixed	2.32	1.73	3.03	1.2	1.31	1.12	1.17	1.15	1.44
G fixed	0.316	0.414	0.503	0.789	0.615	0.882	0.712	0.728	0.893
H fixed	0.643	1.41	0.734	1.11	1.29	1.54	0.905	1.02	0.985
I fixed	2.75	1.96	1.31	0.975	1.11	0.86	1.27	1.12	1.13
K fixed	0.367	1.29	0.628	1.18	0.766	0.734	0.983	0.739	0.874
L fixed	1.41	1.17	1.12	0.98	1.53	1.15	1.6	1.1	1.15
M fixed	1.4	1.12	1.41	0.967	1.74	1.18	1.2	1.23	1.17
N fixed	0.369	0.622	0.498	0.86	0.932	0.869	0.626	0.949	0.73
P fixed	0.166	0.299	0.277	0.879	0.394	0.365	0.537	0.624	0.781
Q fixed	0.496	0.788	0.425	0.847	0.784	0.82	0.631	0.679	0.727
R fixed	0.395	1.22	0.962	1.43	0.8	1.72	2.02	0.923	1.01
V fixed	1.58	1.14	0.845	0.638	0.75	0.64	0.797	1.02	0.917
W fixed	2.7	1.01	2.38	1.83	1.32	2.07	1.78	2.25	1.42
Y fixed	1.22	1.65	1.81	1.34	1.24	1.42	1.05	1.35	1.42
pThr fixed	0.578	0.83	0.416	0.82	0.77	0.688	0.707	1	0.808
pTyr fixed	0.309	0.39	0.353	0.5	1.35	0.425	0.568	0.617	0.54
